One may read the EC50 as the concentration at which the effect is half-maximal. A word on the Kd: it is the free concentration of one partner at which half of the binding sites on the other are occupied at equilibrium, for simple one-to-one binding.

Numbering of substitutions follows the chain as printed.

The target of assay [1] is T1, human ALK-1-Fc (TPP-11726) (human).
T1 construct: Used for panning, screening and SPR; also called hALK-1-Fc
The experiment in a line: ELISA: human ALK-1-Fc coated at 2 µg/ml, TPP-14696 titrated, detected with anti-human IgG2 (Fc specific) then anti-mouse IgG-HRP; readout Relative Fluorescence Units. The method, then:
(§1) Antigens human ALK-1-Fc and human ALK-2-Fc were coated at 2 μg/ml and binding of TPP-14696 and TPP-14719 was detected by anti-human IgG2 (Fc specific) antibody (Sigma 19513) followed by anti-mouse IgG (whole molecule)—HRP (Sigma A9044, 1:40000).
(§2) In order to determine the selectivity for the ALK-1/BMPR-2 receptor complex compared to the ALK-2/BMPR-2 receptor, the specificity of the agonistic antibodies has been evaluated by ELISA (FIG. 9). The antigens human ALK-1-Fc and human ALK-2-Fc were coated at 2 μg/ml and binding of TPP-14696 and TPP-14719 was detected by anti-human IgG2 (Fc specific) antibody (Sigma 19513) followed by anti-mouse IgG (whole molecule)—HRP (Sigma A9044, 1:40000).
A general note: ELISA stands for enzyme-linked immunosorbent assay.

For assay [2], the target named is ALK-1/BMPR-2 receptor pair on PathHunter U2OS ALK-1/BMPR-2 dimerization cells (DiscoverX 93-0962C3) (UniProt P37023 22-503; Q13873 27-1038). Nature of the assay: cell-based or functional assay.
Assay [3] concerns the target T2, hActivin RIA/ALK-2 Fc Chimera (TPP-17233) (human, UniProt Q04771 23-123).
T2 construct: also called human ALK-2-Fc
T2 sequence: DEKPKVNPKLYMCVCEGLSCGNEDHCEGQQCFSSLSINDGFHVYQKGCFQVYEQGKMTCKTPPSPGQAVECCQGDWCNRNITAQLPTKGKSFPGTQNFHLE
The experiment in a line: ELISA: human ALK-2-Fc coated at 2 µg/ml, TPP-14696 titrated, detected with anti-human IgG2 (Fc specific) then anti-mouse IgG-HRP; readout Relative Fluorescence Units. The method, then:
as §1, §2

Assay [4] has as its target T1, human ALK-1-Fc (TPP-11726). The experiment in a line: SPR, Biacore T200, antigen amine-coupled to the chip, antibody injected at 1.56-200 nM, 1:1 Langmuir fit, 25 C. The method, then:
(§3) SPR experiments for quantitative binding analyses were performed using a Biacore T200 instrument (GE Healthcare Biacore, Inc.) equipped with Series S Sensor Chips CMS (GE Healthcare Biacore, Inc.). Binding assays were carried out at 25° C. with assay buffer HBS-EP+ (10 mM HEPES pH 7.4, 150 mM NaCl, 3 mM EDTA, 0.05% Surfactant P20). Antigens were covalently immobilized to the chip surface via amine coupling chemistry. The same proteins that had previously been used to isolate the antibodies of the invention during panning and screening [murine ALK-1-Fc SEQ ID NO: 114, human ALK-1-Fc SEQ ID NO: 116, as well as BMPR-2-Fc SEQ ID NO: 115 (human and murine extracellular are identical)] were used here as […] to determine KD values. Reagents for amine coupling (1-ethyl-3-(3-dimethylaminopropyl) carbodiimide hydrochloride (EDC), N-hydroxysuccinimide (NHS), ethanolamine-HCl pH 8.5) were used from the Amine Coupling Kit (GE Healthcare, product code BR-1000-50). The sensor chip surface was activated with a freshly prepared solution of 0.2 M EDC and 0.05 M NHS passed over the chip surface for 420 seconds at a flow rate of 10 μl/min, followed by an injection of antigen (dissolved to 0.5 μg/ml in immobilization buffer, 10 mM sodium acetate pH 5.0) with a target level of 50 RU. Excess of activated groups were blocked with a 1 molar solution of ethanolamine injected at a flow rate of 10 μl/min for 420 seconds.
(§4) The sensor surface was regenerated for 20 seconds with regeneration solution (glycine-HCl pH 1.5) after each assay cycle consisting of a single analyte injection.
(§5) Obtained sensorgrams were double-referenced, (reference cell correction followed by buffer sample subtraction). KD values were calculated based on the ratio of dissociation (kd) and association (kₐ) rate constants which were obtained by globally fitting sensorgrams with a first order 1:1 Langmuir binding model, implemented in the Biacore Evaluation Software Package (Biacore T200 Evaluation Software Version 2.0, GE Healthcare Biacore, Inc.).
In general terms: In SPR one partner is held on a chip, and binding of the other changes the refractive index at the surface.

The target of assay [5] is T3, murine ALK-1-Fc (TPP-11724) (murine).
T3 construct: also called mouse ALK-1
The description is as above. The method, then:
as §3, §4, §5

The target of assay [6] is T4, BMPR-2-FcHis6 (TPP-11725) (human).
T4 construct: also called human BMPR-2
The assay is described as above. The method, then: as §3, §4, §5

T1 sequence (chain, as listed by the source limits assumed): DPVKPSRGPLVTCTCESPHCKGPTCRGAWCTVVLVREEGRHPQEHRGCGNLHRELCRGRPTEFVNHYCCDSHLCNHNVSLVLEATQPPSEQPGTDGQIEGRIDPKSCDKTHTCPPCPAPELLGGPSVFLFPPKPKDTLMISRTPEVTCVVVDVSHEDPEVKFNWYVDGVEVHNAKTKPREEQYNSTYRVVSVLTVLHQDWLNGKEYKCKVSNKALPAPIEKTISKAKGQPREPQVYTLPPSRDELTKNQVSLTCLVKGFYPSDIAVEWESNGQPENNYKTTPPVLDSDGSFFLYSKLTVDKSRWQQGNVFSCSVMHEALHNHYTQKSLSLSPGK
T4 sequence (chain, as listed by the source limits assumed): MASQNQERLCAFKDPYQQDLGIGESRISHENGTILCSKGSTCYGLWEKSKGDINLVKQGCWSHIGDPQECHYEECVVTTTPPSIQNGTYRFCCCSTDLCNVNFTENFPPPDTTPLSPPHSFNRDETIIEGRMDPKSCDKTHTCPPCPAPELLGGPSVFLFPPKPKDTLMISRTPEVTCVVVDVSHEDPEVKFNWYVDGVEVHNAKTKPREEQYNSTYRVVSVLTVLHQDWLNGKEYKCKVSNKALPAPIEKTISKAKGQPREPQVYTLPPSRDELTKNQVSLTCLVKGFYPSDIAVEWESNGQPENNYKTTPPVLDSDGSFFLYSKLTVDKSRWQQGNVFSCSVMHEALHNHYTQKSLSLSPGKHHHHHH
T3 sequence (chain, as listed by the source limits assumed): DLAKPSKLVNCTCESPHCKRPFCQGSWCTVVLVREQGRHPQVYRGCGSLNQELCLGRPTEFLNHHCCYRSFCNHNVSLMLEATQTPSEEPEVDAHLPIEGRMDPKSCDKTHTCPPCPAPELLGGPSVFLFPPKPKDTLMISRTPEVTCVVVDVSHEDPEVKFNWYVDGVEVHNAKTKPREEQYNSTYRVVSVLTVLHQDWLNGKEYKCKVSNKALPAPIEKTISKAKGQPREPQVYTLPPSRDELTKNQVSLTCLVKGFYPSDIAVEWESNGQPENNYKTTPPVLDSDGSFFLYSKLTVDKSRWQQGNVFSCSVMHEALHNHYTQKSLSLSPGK
Sequence of ALK-1/BMPR-2 receptor pair on PathHunter U2OS ALK-1/BMPR-2 dimerization cells (DiscoverX 93-0962C3) (P37023 22-503, chain 1 of 2): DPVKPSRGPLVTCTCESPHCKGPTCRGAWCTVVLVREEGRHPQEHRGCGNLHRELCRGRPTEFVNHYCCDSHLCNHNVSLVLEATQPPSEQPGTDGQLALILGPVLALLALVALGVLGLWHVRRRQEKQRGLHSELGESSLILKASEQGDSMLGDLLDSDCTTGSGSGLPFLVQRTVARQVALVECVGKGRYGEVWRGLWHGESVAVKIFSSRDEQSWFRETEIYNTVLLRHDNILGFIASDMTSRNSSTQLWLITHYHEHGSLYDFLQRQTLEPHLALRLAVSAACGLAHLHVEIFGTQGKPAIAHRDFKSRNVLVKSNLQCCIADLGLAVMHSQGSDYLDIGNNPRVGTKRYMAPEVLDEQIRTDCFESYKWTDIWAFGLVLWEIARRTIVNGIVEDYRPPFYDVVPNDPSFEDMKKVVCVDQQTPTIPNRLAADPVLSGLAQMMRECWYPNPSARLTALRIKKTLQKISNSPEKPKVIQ
Sequence of ALK-1/BMPR-2 receptor pair on PathHunter U2OS ALK-1/BMPR-2 dimerization cells (DiscoverX 93-0962C3) (Q13873 27-1038, chain 2 of 2): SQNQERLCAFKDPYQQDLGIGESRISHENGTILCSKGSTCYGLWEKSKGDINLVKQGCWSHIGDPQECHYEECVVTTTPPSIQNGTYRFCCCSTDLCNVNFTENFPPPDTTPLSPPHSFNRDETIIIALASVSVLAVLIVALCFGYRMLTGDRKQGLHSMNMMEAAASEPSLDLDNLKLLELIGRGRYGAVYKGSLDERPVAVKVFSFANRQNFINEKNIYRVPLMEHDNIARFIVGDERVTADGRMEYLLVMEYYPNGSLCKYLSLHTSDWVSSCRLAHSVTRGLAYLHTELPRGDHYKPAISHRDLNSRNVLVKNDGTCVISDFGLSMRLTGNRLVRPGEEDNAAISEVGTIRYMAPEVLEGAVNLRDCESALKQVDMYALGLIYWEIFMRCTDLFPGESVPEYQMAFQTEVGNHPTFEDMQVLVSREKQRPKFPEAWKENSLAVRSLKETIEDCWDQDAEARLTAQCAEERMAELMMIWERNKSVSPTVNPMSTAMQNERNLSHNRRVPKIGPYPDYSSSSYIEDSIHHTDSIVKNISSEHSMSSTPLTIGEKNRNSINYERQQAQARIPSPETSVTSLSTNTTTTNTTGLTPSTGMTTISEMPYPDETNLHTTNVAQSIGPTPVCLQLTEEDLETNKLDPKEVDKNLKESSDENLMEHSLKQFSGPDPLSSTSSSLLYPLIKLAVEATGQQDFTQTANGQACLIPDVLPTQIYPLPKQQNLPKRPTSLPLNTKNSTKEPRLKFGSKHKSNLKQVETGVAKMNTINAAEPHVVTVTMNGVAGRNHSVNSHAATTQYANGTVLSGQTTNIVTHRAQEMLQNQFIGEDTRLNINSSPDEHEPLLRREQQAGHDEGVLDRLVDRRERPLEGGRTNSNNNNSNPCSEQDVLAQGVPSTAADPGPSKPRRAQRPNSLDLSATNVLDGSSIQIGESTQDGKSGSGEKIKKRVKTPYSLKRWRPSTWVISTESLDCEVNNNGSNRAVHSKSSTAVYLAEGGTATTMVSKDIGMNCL

B1: TPP-14696 (13654-13667-scFv-kih-IgG2_Fc) (bispecific antibody)
chain 1: EVQLLESGGGLVQPGGSLRLSCAASGFTFSIYAMSWVRQAPGKGLEWVSAISGSGGSTYYADSVKGRFTISRDNSKNTLYLQMNSLRAEDTAVYYCARDFDYWGQGTLVTVTSSGGGGSGGGGSGGGGSQSVLTQPPSASGTPGQRVTISCSGSSSNIGSNYVYWYQQLPGTAPKLLIYGNINRPSGVPDRFSGSKSGTSASLAISGLRSEDEADYYCAAWDDSLNGRVFGGGTKLTVLGGGGSGGGGSGGGGSGVECPPCPAPPVAGPSVFLFPPKPKDTLMISRTPEVTCVVVDVSHEDPEVQFNWYVDGVEVHNAKTKPREEQFNSTFRVVSVLTVVHQDWLNGKEYKCKVSNKGLPAPIEKTISKTKGQPREPQVYTLPPCREEMTKNQVSLWCLVKGFYPSDIAVEWESNGQPENNYKTTPPMLDSDGSFFLYSKLTVDKSRWQQGNVFSCSVMHEALHNHYTQKSLSLSPG
chain 2: EVQLLESGGGLVQPGGSLRLSCAASGFTFSNAWMNWVRQAPGKGLEWVSSISSSSSYIYYADSVKGRFTISRDNSKNTLYLQMNSLRAEDTAVYYCARAVAAGGMFWGLDQWGQGTLVTVTSSGGGGSGGGGSGGGGSQSVLTQPPSASGTPGQRVTISCSGSRSNIGSNSVHWYQQLPGTAPKLLIYGNSNRPSGVPDRFSGSKSGTSASLAISGLRSEDEADYYCQSYDSSLNDHVVFGGGTKLTVLGGGGSGGGGSGGGGSGVECPPCPAPPVAGPSVFLFPPKPKDTLMISRTPEVTCVVVDVSHEDPEVQFNWYVDGVEVHNAKTKPREEQFNSTFRVVSVLTVVHQDWLNGKEYKCKVSNKGLPAPIEKTISKTKGQPREPQVCTLPPSREEMTKNQVSLSCAVKGFYPSDIAVEWESNGQPENNYKTTPPMLDSDGSFFLVSKLTVDKSRWQQGNVFSCSVMHEALHNHYTQKSLSLSPG
notes: scFv-Fc (kih) heterodimer with IgG2 Fc; also called TPP-14669 (as printed in some places); BsAB TPP-14696
The molecule B1 displayed an EC50 in assay [1] of 1.01 nM. For the same molecule, the “Agonistic activity in PathHunter U2OS cells EC50” value in assay [2] was 6.3 nM. Moreover, in assay [3], the binding result is reported as “no binding”.

B2: TPP-13654 (484A-M233-M07-scFv-Fc-hIgG2) (Fc fusion)
chain: B1 chain 1 with C385S, W397T
notes: Monospecific antibody (MsAB) against ALK-1; the construct name says scFv-Fc-hIgG2; not shown: human IgG2 Fc (and any linker), implied by the construct name scFv-Fc-hIgG2
Take B2: the Kd came out at 8.6 nM in assay [4] and 25 nM in assay [5].

B3: TPP-13667 (484A-M198-J22-scFv-Fc-hIgG2) (Fc fusion)
chain: B1 chain 2 with C390Y, S407T, A409L, V448Y
notes: Monospecific antibody (MsAB) against BMPR-2; the first row says hIgG2; not shown: human IgG2 Fc (and any linker), implied by the construct name scFv-Fc-hIgG2
As to B3, binding in assay [6] was characterised by a dissociation constant (Kd) of 8.8 nM.

B4: TPP-13660 (484A-M232-A14-scFv-Fc-hIgG2) (Fc fusion)
chain: EVQLLESGGGLVQPGGSLRLSCAASGFTFSSYAMSWVRQAPGKGLEWVANINQDGSEKNYVDSMRGRFTISRDNSKNTLYLQMNSLRAEDTAVYYCAREFDYWGQGTLVTVTSSGGGGSGGGGSGGGGSQSVLAQPPSASGTPGQRVTISCSGSSSNIGSNYVYWYQQLPGTAPKLLIYGNNKRPSGVPDRFSGSKSGTSASLAISGLRSEDEADYYCAAWDDSLNGRVFGGGTKLTVLGGGGSGGGGSGGGGSGVECPPCPAPPVAGPSVFLFPPKPKDTLMISRTPEVTCVVVDVSHEDPEVQFNWYVDGVEVHNAKTKPREEQFNSTFRVVSVLTVVHQDWLNGKEYKCKVSNKGLPAPIEKTISKTKGQPREPQVYTLPPSREEMTKNQVSLTCLVKGFYPSDIAVEWESNGQPENNYKTTPPMLDSDGSFFLYSKLTVDKSRWQQGNVFSCSVMHEALHNHYTQKSLSLSPG
notes: as for B2
As for B4, the Kd came out at 8.5 nM in assay [4] and 25 nM in assay [5].

B5: TPP-13469 (484A-M010-C06-scFv-Fc-hIgG2) (Fc fusion)
chain: EVQLLESGGGLVQPGGSLRLSCAASGFTFSDYYMTWIRQAPGKGLEWVSSISGGSTYYADSRKGRFTISRDNSENTLYLQMNSLRAEDTAVYYCARDFGVAGWFGQYGMDVWGQGTLVTVSSGGGGSGGGGSGGGGSQSVLTQPPSASGTPGQRVTISCTGSSSNIGAGYDVHWYQQLPGTAPKLLIYRSNQRPSGVPDRFSGSKSGTSASLAISGLRSEDEADYYCSSYAGNYNLVFGGGTKLTVLGGGGSGGGGSGGGGSGVECPPCPAPPVAGPSVFLFPPKPKDTLMISRTPEVTCVVVDVSHEDPEVQFNWYVDGVEVHNAKTKPREEQFNSTFRVVSVLTVVHQDWLNGKEYKCKVSNKGLPAPIEKTISKTKGQPREPQVYTLPPSREEMTKNQVSLTCLVKGFYPSDIAVEWESNGQPENNYKTTPPMLDSDGSFFLYSKLTVDKSRWQQGNVFSCSVMHEALHNHYTQKSLSLSPG
notes: Monospecific antibody (MsAB) against BMPR-2; the construct name says scFv-Fc-hIgG2; not shown: human IgG2 Fc (and any linker), implied by the construct name scFv-Fc-hIgG2
As for B5, the Kd in assay [6] is 6.2 nM.
